Source: US20190367620A1 (Merck KGaA, published 2019)
Residue numbers refer to the chain shown, from its start.

How the values were obtained:
Assay in all cases: SPR as in Example 1.8
[1] = molecular target: T1, human FGFR1b-IIIb extracellular domain with a HIS tag (human)
T1 construct: also called huFGFR1b-IIIb; hFGFR1b-IIIb
T1 chain: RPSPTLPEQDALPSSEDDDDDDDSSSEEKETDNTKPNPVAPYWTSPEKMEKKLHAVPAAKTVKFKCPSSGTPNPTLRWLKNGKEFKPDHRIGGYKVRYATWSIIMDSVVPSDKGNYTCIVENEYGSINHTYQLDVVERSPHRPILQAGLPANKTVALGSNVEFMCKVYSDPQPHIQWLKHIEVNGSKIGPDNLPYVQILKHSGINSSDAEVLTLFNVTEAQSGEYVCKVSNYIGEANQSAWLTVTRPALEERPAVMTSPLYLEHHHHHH
Experimental: (§1) Binding affinities of anti-FGFR1 antibodies to FGFR1 were measured by Surface Plasmon Resonance (SPR) using a GE Healthcare BIAcore 4000 instrument as follows. Goat anti-human Fc antibody (Jackson ImmunoResearch Laboratories #109-005-098) was first immobilized on BIAcore carboxymethylated dextran CM5 chip using direct coupling to free amino groups following the procedure described by the manufacturer. Antibodies were then captured on the CM5 biosensor chip to achieve approximately 200 response units (RU). Binding measurements were performed using the running HBS-EP+ buffer. A 2-fold dilution series of His-tagged FGFR1 proteins were injected at a flow rate of 30 μl/min at 25° C. Association rates (kₒₙ, per mol/s) and dissociation rates (koff, per s) were calculated using a simple 1:1 Langmuir binding model (Biacore 4000 Evaluation Software). The equilibrium dissociation constant (KD, mol) was calculated as the ratio of koff/kₒₙ.
(§2) To obtain a finer, residue-level mapping of the epitope and to complement the HD exchange data, molecular modelling and manual inspection of the crystal structure of FGFR1 [(Beenken et al. 2012); PDB record 3OJV] was used to select solvent exposed residues within and around the epitope identified by HD exchange. The selected residues were mutated either to alanine (large to small) or to glycine if the selected residue was alanine. In total 35 point mutants were designed, expressed and purified in HEK cells, and tested for binding to mAb #A08 using surface plasmon resonance as described in Example 1.8. The affinity of the antibody for wild-type and each mutant was determined and used to calculate the contribution of each epitope residue to the binding energy.

[2] = molecular target: T2, FGFR1 D2 point mutant H54A (human, UniProt P11362 22-254)
T2 chain: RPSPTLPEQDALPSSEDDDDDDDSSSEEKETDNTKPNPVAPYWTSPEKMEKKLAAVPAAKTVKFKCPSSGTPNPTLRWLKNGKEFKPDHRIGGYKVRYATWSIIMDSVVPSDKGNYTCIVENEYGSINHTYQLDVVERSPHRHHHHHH
Experimental: as §1, §2

[3] = molecular target: T3, FGFR1 D2 point mutant V96A (human, UniProt P11362 22-254)
T3 chain: T2 chain with A54H, V96A
Experimental: as §1, §2

[4] = molecular target: T4, FGFR1 D2 point mutant D88A (human, UniProt P11362 22-254)
T4 chain: T2 chain with A54H, D88A
Experimental: as §1, §2

Human FGFR1 D2-His6 = molecular target: T5, Human FGFR1 D2-His6 (human, UniProt P11362 22-254)
T5 construct: also called D2 domain; F3FR1c-D2
T5 sequence: T2 chain with A54H
Experimental: as §1, §2

[5] = molecular target: T6, FGFR1 D2 point mutant A99G (human, UniProt P11362 22-254)
T6 chain: T2 chain with A54H, A99G
Experimental: as §1, §2

[6] = molecular target: T7, human FGFR1b-IIIc extracellular domain with a HIS tag (human, UniProt P11362 22-376)
T7 construct: also called huFGFR1b-IIIc; hFGFR1b-IIIc
T7 sequence: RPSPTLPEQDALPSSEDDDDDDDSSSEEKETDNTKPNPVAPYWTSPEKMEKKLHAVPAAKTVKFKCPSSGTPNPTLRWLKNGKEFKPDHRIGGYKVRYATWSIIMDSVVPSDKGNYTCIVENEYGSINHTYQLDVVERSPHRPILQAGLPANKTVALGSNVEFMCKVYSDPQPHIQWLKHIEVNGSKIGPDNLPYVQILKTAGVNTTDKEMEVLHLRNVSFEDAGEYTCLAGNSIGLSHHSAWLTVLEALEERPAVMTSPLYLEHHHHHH
Experimental: as §1, §2

[7] = molecular target: T8, FGFR1 D2 point mutant A58G (human, UniProt P11362 22-254)
T8 chain: T2 chain with A54H, A58G
Experimental: as §1, §2

[8] = molecular target: T9, FGFR1 D2 point mutant L53A (human, UniProt P11362 22-254)
T9 chain: T2 chain with L53A, A54H
Experimental: as §1, §2

Kd [1]: 0.47 nM | Kd [2]: 0.36 nM | Kd [3]: 0.19 nM | Kd [4]: 0.16 nM | Kd (Human FGFR1 D2-His6): 0.19 nM | Kd [5]: 0.18 nM | Kd [6]: 0.48 nM | Kd [7]: 2.2 nM | Kd [8]: 0.29 nM
B1: mAb #A08 (antibody, V domains shown)
VH: EVQLQESGPGLVKPSGTLSLTCAVSGGSISSNNWWSWVRQPPGKGLEWIGEIYHSGSTSYNPSLKSRVTISVDKSKNQFSLKLNSVTAADTAVYYCARGTDWFDPWGQGTLVTVSS
VL: QAVLTQPPSVSVAPGQTARITCGGNNIGSESVHWYQQKPGQAPVLVVYDDSDRPSGIPERFSGSNSGNTATLTISRVEAGDEADYYCQVWDSTSDHRVFGGGTKLTVL
notes: Only variable domains are tied to the name mAb #A08 (hit); also called #A08 hit; mAb #08
